From patent US20190201542A1, “ANTI-DLL3 DRUG CONJUGATES FOR TREATING TUMORS AT RISK OF NEUROENDOCRINE TRANSITION” (ABBVIE STEMCENTRX LLC, priority 2016, published 2019) come the findings set out here.

For this assay, the target named is T1, DLL3 (Homo sapiens, UniProt Q9NYJ7).
T1 sequence (Q9NYJ7 27-618): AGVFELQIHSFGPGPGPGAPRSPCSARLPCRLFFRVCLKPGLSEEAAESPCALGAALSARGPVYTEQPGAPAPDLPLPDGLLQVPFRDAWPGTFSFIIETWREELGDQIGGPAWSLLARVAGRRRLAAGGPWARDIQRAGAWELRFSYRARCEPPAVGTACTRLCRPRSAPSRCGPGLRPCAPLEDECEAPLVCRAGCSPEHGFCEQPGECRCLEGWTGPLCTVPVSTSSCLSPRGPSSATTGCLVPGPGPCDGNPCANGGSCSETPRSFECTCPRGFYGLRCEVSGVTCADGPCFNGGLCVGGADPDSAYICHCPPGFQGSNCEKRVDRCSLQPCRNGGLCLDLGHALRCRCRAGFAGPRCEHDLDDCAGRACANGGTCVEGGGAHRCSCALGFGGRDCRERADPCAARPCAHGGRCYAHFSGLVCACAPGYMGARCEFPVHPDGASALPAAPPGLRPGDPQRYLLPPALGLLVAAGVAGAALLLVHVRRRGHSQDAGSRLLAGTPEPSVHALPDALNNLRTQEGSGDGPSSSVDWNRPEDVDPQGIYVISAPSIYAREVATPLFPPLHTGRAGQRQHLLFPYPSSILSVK
In words: Binning (competitive antibody binding). From the text:
It is also possible to characterize the antibodies of the invention in terms of the group or “bin” to which they belong. “Binning” refers to the use of competitive antibody binding assays to identify pairs of antibodies that are incapable of binding an immunogenic determinant simultaneously, thereby identifying antibodies that “compete” for binding. Competing antibodies may be determined by an assay in which the antibody or immunologically functional fragment being tested prevents or inhibits specific binding of a reference antibody to a common antigen. Typically, such an assay involves the use of purified antigen (e.g., DLL3, ASCL1, or a domain or fragment thereof) bound to a solid surface or cells, an unlabeled test antibody and a labeled reference antibody. Competitive inhibition is measured by determining the amount of label bound to the solid surface or cells in the presence of the test antibody. Additional details regarding methods for determining competitive binding are provided in the Examples herein. […]
A schematic summary of the domain-level epitope mapping data of the antibodies tested is presented in FIG. 2, with antibodies binding a linear epitope underlined and, where determined, the corresponding bin noted in parenthesis. […]

B1: SC16.23: murine anti-DLL3 antibody (antibody, V domains shown)
VL: QIVLTQSPAIMSASPGEKVTLTCSASSSVSSRYLYWYQQKPGSSPKLWIYSTSNLASGVPARFSGSGSGTSYSLIISSMEAEDAASYFCHQWSNYPLTFGAGTKLELK
VH: QVTLKESGPGILQPSQTLSLTCSFSGFSLSTSNTGIGWIRQPSGTGLEWLAHIWWNDDKYYNPSLKSRLTISKETSNNQVFLKITNVDTADTASYFCVQIGRDYSNYAWYFDVWGAGTTVTVSS
As to B1, the “Binning with SC16.34 or SC16.56” value is recorded as “not to bin with SC16.34 or SC16.56”.
